B1: peroxiredoxin 1 (Prdx1), rat heart (natural protein, rat (endogenous in heart), UniProt Q63716 1-199, looked up)
chain: MSSGNAKIGHPAPSFKATAVMPDGQFKDISLSDYKGKYVVFFFYPLDFTFVCPTEIIAFSDRAEEFKKLNCQVIGASVDSHFCHLAWINTPKKQGGLGPMNIPLVSDPKRTIAQDYGVLKADEGISFRGLFIIDDKGILRQITINDLPVGRSVDEILRLVQAFQFTDKHGEVCPAGWKPGSDTIKPDVNKSKEYFSKQK
B2: peroxiredoxin 2 (Prdx2), rat heart (natural protein, rat (endogenous in heart), UniProt P35704 1-198, looked up)
chain: MASGNAHIGKPAPDFTGTAVVDGAFKEIKLSDYRGKYVVLFFYPLDFTFVCPTEIIAFSDHAEDFRKLGCEVLGVSVDSQFTHLAWINTPRKEGGLGPLNIPLLADVTKSLSQNYGVLKNDEGIAYRGLFIIDAKGVLRQITVNDLPVGRSVDEALRLVQAFQYTDEHGEVCPAGWKPGSDTIKPNVDDSKEYFSKHN

Tests used:
[1] = target: the molecule itself; assay: non-reducing SDS-PAGE and immunoblot
SEC = target: the molecule itself; assay: SEC

Protein | stoichiometry N [1] | stoichiometry N (SEC)
B1 | 2 | 
B2 | 2 | 10
